Measurements published in publication PMC7298706 (mBio, 2020).
Residue numbers refer to the chain shown, from its start.

B1: anti-HlgC1 MAb (antibody, V domains shown)
VH: QVQLLQSGAELVKPGASVQLSCKASGFTFTKHDINWVRQRPEQGLEWIGWIFPGDGNTKYNEKFKGKATLTTDKSSSTAYMQLNGLTSEDSAVYFCAKEIFYWGQGTSVTVSS
VL: DIVMTQSPSSLTVTAGEKVTMSCKSSQSLLNSENQRNYLTWYQQKPGQPPKLLISWASTRESGVPDRFTGSGSGTDFTLTISSVQAEDLAVYYCQNDFSYPLTFGAGTKLELR
notes: also called anti-HIgC1 MAb; source: murine B-cell hybridoma (BALB/c mice immunized with recombinant HlgC)
B2: anti-HlgC3 MAb (antibody, V domains shown)
VH: B1 VH with H32Y, E42D, E62D, A68V, T69I, N84S, G85R, K98R, S113A
VL: B1 VL with L30F, G47R, G63E, F98Y
notes: also called anti-HIgC3 MAb; source: murine B-cell hybridoma (BALB/c mice immunized with recombinant HlgC)
B3: anti-HlgC4 MAb (antibody, V domains shown)
VH: B1 VH with H32Y, E42D, E62D, A68V, T69I, N84T, G85R, K98R
VL: B1 VL with F98Y
notes: also called anti-HIgC4 MAb; source: murine B-cell hybridoma (BALB/c mice immunized with recombinant HlgC)
B4: anti-HlgC2 MAb (antibody, V domains shown)
VH: QVQLKESGPGLVAPSQSLSITCTVSGFSLTNFAVHWVRQPRGKGLEWLGSIWADGRTIYSALMSRLSISKDNSKSQVFLNMNSLQTDDTAMYYCATPFYFGYDGGYAMDHWGQGTSVTVSS
VL: DVLMTQTPLSLPVSLGDQASISCRSSQSIVHGSGNTYLEWYLQKPGQSPKLLIYKVSNRLSGVPDRISGSGSGTDFTLKINRVEAEDLGVYYCFQGSHVPYTFGGGTKLEMK
notes: also called anti-HIgC2 MAb; source: murine B-cell hybridoma (BALB/c mice immunized with recombinant HlgC)

biological target: T1, HlgA (Staphylococcus aureus, strain not told, UniProt P0A074); test: ELISA; conditions: both partners purified
T1 construct: source: purified recombinant

Row | Binder | binding result
1 | B1 | no binding (tested: MAb at 2 μg/ml)
2 | B2 | no binding (tested: MAb at 2 μg/ml)
3 | B3 | no binding (tested: MAb at 2 μg/ml)
4 | B4 | no binding (tested: MAb at 2 μg/ml)

biological target: T2, HlgB (Staphylococcus aureus, strain not told, UniProt P0A077); test: ELISA; conditions: both partners purified
T2 construct: source: purified recombinant

Row | Binder | binding result
5 | B1 | no binding (tested: MAb at 2 μg/ml)
6 | B2 | no binding (tested: MAb at 2 μg/ml)
7 | B3 | no binding (tested: MAb at 2 μg/ml)
8 | B4 | no binding (tested: MAb at 2 μg/ml)

biological target: T3, γ-hemolysin subunit HlgC, recombinant holoprotein (Staphylococcus aureus, strain not told, UniProt Q07227); test: ELISA; conditions: both partners purified
T3 construct: source: purified recombinant

Row | Binder | binding result
9 | B1 | binds
10 | B2 | binds
11 | B3 | binds
12 | B4 | binds

biological target: T4, LukS, S subunit of the Panton-Valentine leukocidin (LukSF), recombinant holoprotein (Staphylococcus aureus, strain not …, UniProt O80066); test: ELISA; conditions: both partners purified
T4 construct: source: purified recombinant

Row | Binder | binding result
13 | B1 | binds
14 | B2 | binds
15 | B3 | binds
16 | B4 | binds

biological target: T5, LukD (Staphylococcus aureus, strain , UniProt O54082); test: ELISA; conditions: both partners purified
T5 construct: source: purified recombinant

Row | Binder | binding result
17 | B1 | no binding (tested: MAb at 2 μg/ml)
18 | B2 | no binding (tested: MAb at 2 μg/ml)
19 | B3 | no binding (tested: MAb at 2 μg/ml)
20 | B4 | no binding (tested: MAb at 2 μg/ml)

biological target: T6, LukE (Staphylococcus aureus, strain , UniProt O54081); test: ELISA; conditions: both partners purified
T6 construct: source: purified recombinant

Row | Binder | binding result
21 | B1 | no binding (tested: MAb at 2 μg/ml)
22 | B2 | no binding (tested: MAb at 2 μg/ml)
23 | B3 | no binding (tested: MAb at 2 μg/ml)
24 | B4 | no binding (tested: MAb at 2 μg/ml)
